Read-outs that look alike come from different tables or passages of the source.

Here are results for seven substances from patent publication US20240109955A1.

Holding throughout (test): cell-based or functional assay
The target of assay [1] is SARS-CoV-2 Omicron BA.4.6 spike protein (R346T, F486V) (SARS-CoV-2) (UniProt P0DTC2).
Assay [2] concerns the target SARS-CoV-2 spike protein, Omicron sublineage BA.1.1 (R346K) (SARS-CoV-2) (UniProt P0DTC2).
In assay [3] the target is SARS-CoV-2 spike protein, Omicron variant (B.1.1.529) (SARS-CoV-2) (UniProt P0DTC2).
The target of assay [4] is SARS-CoV-2 spike protein, Omicron sublineage BA.1.1 (R346K) (SARS-CoV-2) (UniProt P0DTC2). The source holds these as a separate data set.
Assay [5] has as its target SARS-CoV-2 spike protein, Omicron sublineage BA.4.6 (R346T, F486V) (SARS-CoV-2) (UniProt P0DTC2).
Assay [6] addresses SARS-CoV-2 spike protein, Omicron sublineage BA.4.7 (R346S, F486V) (SARS-CoV-2) (UniProt P0DTC2).
Assay [7] addresses SARS-CoV-2 spike protein, Omicron sublineage BF.7 (R346T, F486V) (SARS-CoV-2) (UniProt P0DTC2).
Assay [8] has as its target SARS-CoV-2 spike protein, Omicron sublineage BQ.1.1 (R346T, K444T, F486V) (SARS-CoV-2) (UniProt P0DTC2).
In assay [9] the target is SARS-CoV-2 spike (S) protein, Omicron sublineage BA.1.1 (R346K) (SARS-CoV-2) (UniProt P0DTC2).
The target in assay [10] is SARS-CoV-2 spike (S) protein, Omicron sublineage BA.4.6 (R346T, F486V) (SARS-CoV-2) (UniProt P0DTC2).
The target in assay [11] is SARS-CoV-2 spike (S) protein, Omicron sublineage BA.4.7 (R346S, F486V) (SARS-CoV-2) (UniProt P0DTC2).
The target in assay [12] is SARS-CoV-2 spike (S) protein, Omicron sublineage BF.7 (R346T, F486V) (SARS-CoV-2) (UniProt P0DTC2).
For assay [13], the target named is SARS-CoV-2 spike (S) protein, Omicron sublineage BQ 1.1 (R346T, K444T, F486V) (SARS-CoV-2) (UniProt P0DTC2).
In assay [14] the target is SARS-CoV-2 spike (S) protein, Omicron variant BA.1 (SARS-CoV-2) (UniProt P0DTC2).
Assay [15] deals with SARS-CoV-2 spike (S) protein, Omicron variant BA.2 (SARS-CoV-2) (UniProt P0DTC2).
Assay [16] deals with SARS-CoV-2 spike (S) protein, Omicron variant BA.2.12.1 (SARS-CoV-2) (UniProt P0DTC2).
For assay [17], the target named is SARS-CoV-2 spike (S) protein, C.1.2 variant (SARS-CoV-2) (UniProt P0DTC2).
The target in assay [18] is SARS-CoV-2 spike (S) protein, Mu variant (B.1.621) (SARS-CoV-2) (UniProt P0DTC2).
The target in assay [19] is SARS-CoV-2 spike (S) protein, Omicron variant BA.4/5 (SARS-CoV-2) (UniProt P0DTC2).
The target in assay [20] is SARS-CoV-2 spike protein, Alpha variant (B.1.1.7) (SARS-CoV-2).
In assay [21] the target is SARS-CoV-2 spike protein, Beta variant 1 (B.1.351.v1) (SARS-CoV-2).
The target in assay [22] is SARS-CoV-2 spike protein, Delta variant (B.1.617.2) (SARS-CoV-2).
The target of assay [23] is SARS-CoV-2 spike protein, Gamma variant (P.1) (SARS-CoV-2).
Assay [24] has as its target SARS-CoV-2 spike (S) protein, Iota variant (B.1.526) (SARS-CoV-2) (UniProt P0DTC2).
Assay [25] concerns the target SARS-CoV-2 spike (S) protein, Lambda variant (C.37) (SARS-CoV-2) (UniProt P0DTC2).
Assay [26] concerns the target SARS-CoV-2 spike (S) protein, Omicron variant BA1.1.529 (SARS-CoV-2) (UniProt P0DTC2).

Sequence of MX413 (A19-61 x A23-58H/B1-182L) (bispecific antibody) (chain): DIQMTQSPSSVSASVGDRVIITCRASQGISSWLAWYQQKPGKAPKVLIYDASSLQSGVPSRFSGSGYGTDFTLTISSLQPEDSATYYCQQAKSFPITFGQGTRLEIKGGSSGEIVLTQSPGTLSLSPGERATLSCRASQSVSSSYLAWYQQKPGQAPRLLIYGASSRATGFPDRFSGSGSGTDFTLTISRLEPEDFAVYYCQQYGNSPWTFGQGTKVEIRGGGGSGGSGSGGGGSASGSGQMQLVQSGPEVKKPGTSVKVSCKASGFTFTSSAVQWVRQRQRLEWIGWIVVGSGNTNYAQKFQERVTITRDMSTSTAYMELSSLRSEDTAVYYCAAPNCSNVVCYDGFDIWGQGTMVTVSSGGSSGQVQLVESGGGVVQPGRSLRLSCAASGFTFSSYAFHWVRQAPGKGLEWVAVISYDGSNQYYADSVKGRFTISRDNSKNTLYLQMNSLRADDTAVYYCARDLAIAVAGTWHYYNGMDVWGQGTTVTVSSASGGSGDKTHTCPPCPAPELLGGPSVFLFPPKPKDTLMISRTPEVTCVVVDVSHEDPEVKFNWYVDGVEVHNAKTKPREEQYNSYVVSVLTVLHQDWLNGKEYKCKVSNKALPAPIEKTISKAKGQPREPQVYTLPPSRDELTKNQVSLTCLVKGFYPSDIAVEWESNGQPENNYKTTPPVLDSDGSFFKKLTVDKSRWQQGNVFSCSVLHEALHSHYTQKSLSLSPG
Sequence of MX492 (A19-46 x A23-58H/B1-182L) (bispecific antibody) (chain): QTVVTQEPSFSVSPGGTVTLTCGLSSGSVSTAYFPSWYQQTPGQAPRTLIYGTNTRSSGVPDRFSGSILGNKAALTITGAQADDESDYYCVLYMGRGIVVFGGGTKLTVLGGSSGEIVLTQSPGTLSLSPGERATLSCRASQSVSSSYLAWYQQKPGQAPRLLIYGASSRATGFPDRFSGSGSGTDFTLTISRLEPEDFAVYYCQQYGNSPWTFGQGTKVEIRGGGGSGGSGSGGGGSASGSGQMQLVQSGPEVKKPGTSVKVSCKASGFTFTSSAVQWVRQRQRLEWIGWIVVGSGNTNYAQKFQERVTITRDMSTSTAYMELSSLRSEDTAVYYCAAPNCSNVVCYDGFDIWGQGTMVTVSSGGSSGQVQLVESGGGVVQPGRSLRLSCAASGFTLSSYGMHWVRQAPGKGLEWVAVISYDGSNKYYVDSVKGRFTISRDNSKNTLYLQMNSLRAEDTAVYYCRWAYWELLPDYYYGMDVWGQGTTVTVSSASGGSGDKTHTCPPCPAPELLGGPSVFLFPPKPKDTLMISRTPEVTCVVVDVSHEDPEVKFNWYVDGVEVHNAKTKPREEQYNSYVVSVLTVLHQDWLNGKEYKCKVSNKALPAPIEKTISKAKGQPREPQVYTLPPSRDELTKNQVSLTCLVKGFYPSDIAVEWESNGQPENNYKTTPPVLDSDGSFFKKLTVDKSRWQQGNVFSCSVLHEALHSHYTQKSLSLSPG

In the case of bebtelovimab (antibody), the IC80, pseudovirus neutralization in assay [1] was 1 nM; in [2] it was 65.1 nM; in [3], 15.6 nM; in [4], 65.1 nM; in assay [5], 28.1 nM; in assay [6], 22.4 nM. Moreover, the IC80, pseudovirus neutralization is 24.5 nM in assay [7] and more than 10000 nM in assay [8]. Besides, the IC50, pseudovirus neutralization in assay [2] amounted to 26.4 nM; in [3], 0.32 nM; in assay [4], 26.4 nM; in assay [5] it was 11.5 nM; in [6] it was 11.4 nM; in assay [7], 8.51 nM. In [8], the IC50, pseudovirus neutralization was more than 10000 nM.

As for “MX413 (A19-61 x A23-58H/B1-182L) (bispecific antibody)”, the IC50, pseudovirus neutralization in assay [1] was 10 nM; in [9], 2.24 nM; in assay [10] it was 56 nM; in [11], 77.9 nM; in [12], 28.1 nM; in [13], more than 10000 nM. The IC80, pseudovirus neutralization in assay [1] is 25 nM; in assay [9], 10.5 nM; in assay [10], 155 nM; in assay [11], 126 nM; in assay [12], 177 nM; in assay [13], more than 10000 nM.

As for “MX501 (A19-46 × A23-58H/B1-182L/A19-61 × A23-58H/B1-182L)”, the IC50, pseudovirus neutralization was 0.0285 nM in assay [14]; 0.0097 nM in assay [15]; 0.0405 nM in assay [16]; 20.5 nM in assay [4]; more than 10000 nM in [5]; more than 10000 nM in [6]. Further, the IC50, pseudovirus neutralization in assay [7] and in [8] was more than 10000 nM each time. Further, the IC80, pseudovirus neutralization is 0.0876 nM in assay [14]; 0.025 nM in assay [15]; 0.0927 nM in assay [16]; 77.2 nM in assay [4]; more than 10000 nM in [5]; more than 10000 nM in assay [6]. Moreover, the IC80, pseudovirus neutralization in assay [7] and in [8] was more than 10000 nM throughout.

Turning to A23_58.1 (antibody), the pseudovirus neutralization IC50 (nM (inferred)) in [17] is 0.0287; in assay [18], 0.124; in assay [14] it was 0.853; in assay [15] it was 1.72; in assay [16], 0.647; in assay [19], more than 66.7. The pseudovirus neutralization IC80 (nM (inferred)) is 0.0656 in [17]; 0.26 in assay [18]; 4.24 in [14]; 6.12 in assay [15]; 4.96 in [16]; more than 66.7 in assay [19]. Moreover, the IC50, pseudovirus neutralization in [20] was determined as 0.0329 nM; in assay [21] it was 0.123 nM; in assay [22] it was 0.0133 nM; in assay [23] it was 0.0097 nM. Also, the IC80, pseudovirus neutralization is 0.104 nM in assay [20], 0.339 nM in assay [21], 0.0358 nM in assay [22] and 0.0437 nM in assay [23].

On to “MX492 (A19-46 x A23-58H/B1-182L) (bispecific antibody)”, for which the IC50, pseudovirus neutralization in assay [1] was more than 10000 nM; in assay [9], 8.77 nM; in assay [10], 21.4 nM; in [11], 13.3 nM; in [12] it was more than 10000 nM; in assay [13], more than 10000 nM. For the same substance, the IC80, pseudovirus neutralization is more than 10000 nM in [1]; 68 nM in [9]; 24.5 nM in assay [10]; 154 nM in [11]; more than 10000 nM in assay [12]; more than 10000 nM in [13].

For the substance A19-61.1 (antibody), the IC50, pseudovirus neutralization worked out at 540 nM in assay [1]; 0.175 nM in [20]; 0.0686 nM in assay [21]; 0.209 nM in assay [22]; 0.135 nM in assay [23]. In addition, the IC80, pseudovirus neutralization in assay [1] came to 2170 nM; in [20] it was 0.325 nM; in assay [21], 0.113 nM; in assay [22], 0.292 nM; in assay [23] it was 0.288 nM. In addition, the pseudovirus neutralization IC50 (nM (inferred)) in assay [17] is 8.43; in assay [24] it was 0.0418; in assay [25], 0.11; in assay [18], 0.264; in assay [14] it was more than 66.7; in assay [15], 0.0607. Also, the pseudovirus neutralization IC50 (nM (inferred)) in assay [16] was 0.11; in assay [19] it was 0.128; in assay [26], more than 66.7. Also, the pseudovirus neutralization IC80 (nM (inferred)) in assay [24] is 0.0836; in [25] it was 0.186; in assay [18], 0.43; in assay [14], more than 66.7; in assay [15] it was 0.17; in [16] it was 0.298. Also, the pseudovirus neutralization IC80 (nM (inferred)) was 0.322 in assay [19] and more than 66.7 in [26].

Regarding “MX500 (A19-46 × A23-58H/B1-182L/A23-58H/B1-182L × A19-61)”, the IC50, pseudovirus neutralization in assay [14] is 0.0639 nM; in [15], 0.0151 nM; in assay [16], 0.0655 nM; in assay [4], 45.1 nM; in assay [5] it was more than 10000 nM; in assay [6], more than 10000 nM. Also, the IC50, pseudovirus neutralization in [7] and in assay [8] was more than 10000 nM throughout. The IC80, pseudovirus neutralization is 0.204 nM in assay [14]; 0.0503 nM in assay [15]; 0.145 nM in assay [16]; 83.4 nM in assay [4]; more than 10000 nM in assay [5]; more than 10000 nM in assay [6]. Moreover, the IC80, pseudovirus neutralization in assay [7] and in assay [8] was more than 10000 nM in each case.
